Test [1] has as its target T1, Rattus norvegicus neuronal calcium sensor-1 (NCS-1), full-length, Ca2+-bound (Rattus norvegicus, UniProt P62168 1-190).
T1 construct: Neuronal calcium sensor-1, Rattus norvegicus, Swiss-Prot P62168, full length (residues 1-190); also called Ca2+/NCS-1; rat NCS-1
As to the kind of experiment: ITC; 1 mM Ca2+/NCS-1 in the syringe titrated into 100 uM D2R peptide in the cell, 25 °C, 50 mM Tris-HCl, 50 mM NaCl, 5 mM CaCl2, pH 7.5; fitted to a sequential model and to a two-site nonsequential model with stoichiometry fixed at 1:2 NCS-1:peptide. Particulars: both partners purified. (Isothermal titration calorimetry measures the heat released or taken up as one component is titrated into another.)

In test [2] the target is T1, Rattus norvegicus neuronal calcium …. The test can be described thus: crystal structure; NCS-1 (1 mM) with 2-fold excess of GRK1 peptide; 0.12 M alcohols, 0.1 M HEPES/MOPS pH 7.5, 30% PEGMME 550 and PEG 20000, 20 °C; 2.30 Å. The conditions noted are these: both partners purified.

B1: D2 receptor peptide (D2R peptide) (peptide)
peptide: NIEFRKAFLKILHSR
notes: terminal Arg added to improve solubility; also called D2B (copy in the N-lobe site); D2C (copy in the C-lobe site); source: synthetic peptide, bought: GenicBio, China (>95% pure)
As a reminder, the Kd is the constant that tells how readily two partners part at equilibrium. Regarding B1, the Kd in test [1] is 40 ± 6 µM.

B2: GRK1 peptide (N terminus of G-protein-coupled receptor kinase 1, residues 1-25) (peptide)
peptide: MDFGSLETVVANSAFIAARGSFDGS
notes: also called RK25; source: synthetic peptide, bought: GenicBio, China (>95% pure)
In the case of B2, the binding result in test [2] is given as “binds”.

The values above are taken from article PMC4513130, “Neuronal Calcium Sensor-1 Binds the D2 Dopamine Receptor and G-protein-coupled Receptor Kinase 1 (GRK1) Peptides Using Different Modes of Interactions*” (The Journal of Biological Chemistry, 2015).
